From PMC5702669

Columns and labels:
[1] = target: full-length PfMyoA heavy chain with C-terminal biotin tag and FLAG tag (P. falciparum) (UniProt Q8IDR3)
skeletal muscle actin = skeletal muscle actin (UniProt P68135)

## T. gondii essential light chain TgELC1 (from UniProt A0A125YUL9 1-87) (natural protein)
[1]
  in vitro motility speed of PfMyoA-MTIP with TgELC1, no calcium: 3.3 μm/s

## PfMD, PfMyoA motor domain (Met-1–Lys-768) with C-terminal FLAG tag (from UniProt Q8IDR3 1-768) (domain or fragment)
Skeletal muscle actin
  Km (actin concentration at half-maximal activity) of the actin-activated ATPase, 30 °C, 5 mM NaCl: 13 µM

## P. falciparum essential light chain (PfELC), untagged (from UniProt Q8IJM4 1-134) (natural protein)
[1]
  in vitro motility speed of PfMyoA-MTIP with PfELC, no calcium: 3.8 μm/s
  in vitro motility speed of PfMyoA-MTIP with PfELC, with calcium (100 μM): 3.8 μm/s

## PfMD T417A (phospho-null at the TEDS site) (from UniProt Q8IDR3 1-768) (domain or fragment)
Skeletal muscle actin
  Km (actin concentration at half-maximal activity) of the actin-activated ATPase, 30 °C, 5 mM NaCl: 9.8 µM

## PF3D7_0627200, putative myosin light chain (PFF1320c) (from UniProt C6KTA8 1-139) (natural protein)
[1]
  in vitro motility speed of PfMyoA-MTIP with PF3D7 0627200 added, no calcium: 1.1 μm/s
  in vitro motility speed of PfMyoA-MTIP with PF3D7 0627200 added, with calcium: 0.6 μm/s

## PF3D7_0107000, putative centrin-1 (PfPC1), N-terminal His6 tag (natural protein)
[1]
  in vitro motility speed of PfMyoA-MTIP with PF3D7 0107000 added, no calcium: 1.5 μm/s

## PfMD T417D (phosphomimic at the TEDS site) (from UniProt Q8IDR3 1-768) (domain or fragment)
Skeletal muscle actin
  Km (actin concentration at half-maximal activity) of the actin-activated ATPase, 30 °C, 5 mM NaCl: 4.4 µM
